Measurements reported in patent publication US20230398218A1, “RAS NEOANTIGENS AND USES THEREOF” (priority 2020, published 2023).

Columns and labels:
Details in all cases: remark: other sources report otherwise
HLA-A02.01 (human) [1] = assay: pMHC-I complex dissociation at 37 C, radiolabeled b2m
HLA-A02.01 (human) [2] = assay: competition with radiolabeled reference peptide on prepared MHC class I
HLA-A01.01 (human) [3] = assay: pMHC-I complex dissociation at 37 C, radiolabeled b2m
HLA-A01.01 (human) [4] = assay: competition with radiolabeled reference peptide on prepared MHC class I
HLA-B07.02 (human) [5] = assay: pMHC-I complex dissociation at 37 C, radiolabeled b2m
HLA-B07.02 (human) [6] = assay: competition with radiolabeled reference peptide on prepared MHC class I
HLA-A24.02 (human) [7] = assay: pMHC-I complex dissociation at 37 C, radiolabeled b2m
HLA-A24.02 (human) [8] = assay: competition with radiolabeled reference peptide on prepared MHC class I

Row | Binder | Stability (half-life (hr.)) (HLA-A02.01 (human) [1]) | Affinity (HLA-A02.01 (human) [2]) | Stability (half-life (hr.)) (HLA-A01.01 (human) [3]) | Affinity (HLA-A01.01 (human) [4]) | Stability (half-life (hr.)) (HLA-B07.02 (human) [5]) | Affinity (HLA-B07.02 (human) [6]) | Stability (half-life (hr.)) (HLA-A24.02 (human) [7]) | Affinity (HLA-A24.02 (human) [8])
1 | STVQLIMQL | 0 min | 7260 nM |  |  |  |  |  | 
2 | MQLMPFGCL | 22.1 min | 116 nM |  |  | 0 h | 1590 nM |  | 
3 | QLIMQLMPF | 20.4 min | 193 nM |  |  |  |  | 22.1 min | 
4 | LTSTVQLIM |  |  | 6.22 min | 2.89 µM |  |  |  | 
5 | MQLMPFGCLL | 22.9 min | 16.3 nM |  |  |  |  | 0 min | 18.9 µM
6 | VQLIMQLMPF | 0 min | 4940 nM |  |  |  |  | 0 min | 4.1 µM

Further lines, results first:

Row | Stability (half-life (hr.)) (HLA-A02.01 (human) [1]) | Affinity (HLA-A02.01 (human) [2]) | Stability (half-life (hr.)) (HLA-A01.01 (human) [3]) | Affinity (HLA-A01.01 (human) [4]) | Stability (half-life (hr.)) (HLA-B07.02 (human) [5]) | Affinity (HLA-B07.02 (human) [6]) | Stability (half-life (hr.)) (HLA-A24.02 (human) [7]) | Affinity (HLA-A24.02 (human) [8]) | Binder
7 | 0 min | 5210 nM |  |  |  |  |  |  | QLIMQLMPFG
8 | 0 min | 537 nM | 0 min | 8.28 µM |  |  |  |  | CLTSTVQLIM
9 | 0 min | 3340 nM |  |  |  |  |  |  | LIMQLMPFG
10 | 0 min | 4000 nM |  |  |  |  |  |  | YMANGSLLN
11 | 0 min | 1010 nM |  |  | 0 h |  |  |  | MANGSLLNYL
12 | 22.2 min | 1210 nM |  |  |  |  |  |  | IMQLMPFGC
13 | 183 min | 67.7 nM |  |  | 0 h | 866 nM |  |  | SLLNYLREM
14 | 30.9 min | 653 nM |  |  |  |  | 0 min | 14.1 µM | IMQLMPFGCL
